Experimental data taken from patent US20050137135A1 (priority 2002, published 2005).
“Also recorded” adds a separate entry of the source. Square brackets hold non-standard residues; d marks the D form. Ends that are not written are not given here. Peptide text beside a SMILES is read from it.

How the values were obtained:
[1] = target: T1, rat pancreatic islet (wild type) GIP-receptor (Rattus norvegicus, UniProt P43219); assay: biochemical; type: binding
T1 construct: expressed in transfected cells; host or cells: CHO-K1 (Chinese hamster ovary)
T1 sequence (P43219 19-455): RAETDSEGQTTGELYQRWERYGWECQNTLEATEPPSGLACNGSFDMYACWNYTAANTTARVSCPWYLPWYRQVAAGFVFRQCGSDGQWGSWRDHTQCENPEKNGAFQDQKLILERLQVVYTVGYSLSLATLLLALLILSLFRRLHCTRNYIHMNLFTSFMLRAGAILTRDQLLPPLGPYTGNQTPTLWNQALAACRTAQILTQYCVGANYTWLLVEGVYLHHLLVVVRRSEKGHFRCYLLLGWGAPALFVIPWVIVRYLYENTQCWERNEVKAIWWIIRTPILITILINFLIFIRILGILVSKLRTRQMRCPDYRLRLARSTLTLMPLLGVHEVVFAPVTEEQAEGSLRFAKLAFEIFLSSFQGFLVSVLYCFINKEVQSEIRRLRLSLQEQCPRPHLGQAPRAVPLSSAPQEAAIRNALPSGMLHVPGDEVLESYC
Protocol: (§1) Cells were cultured in DMEM/F12, supplemented with 10% newborn calf serum, 50 units/ml penicillin G, and 50 μg/ml streptomycin (Culture media and antibiotics from Gibco BRL, Life Technologies). Cells were grown in 75 cm^2 flasks until 80-90% confluent, when they were split and seeded onto 24 well plates at a density of 50,000 cells/well. Experiments were carried out 48 h later.
(§2) Binding studies using ^125I-labeled spGIP1-42, purified by high performance liquid chromatography (HPLC), were performed essentially as described previously-[21]. wtGIP-R1 Cells (1-5×10^5/well) were washed twice at 4° C. in binding buffer (BB), consisting of DMEM/F12 (GIBCO), 15 mM HEPES, 0.1% bovine serum albumin (BSA), 1% Trasylol (aprotinin; Bayer), pH 7.4. They were incubated for 12-16 h at 4° C. with ^125I-spGIP (50,000 cpm) in the presence or absence of unlabeled GIP1-42 or analogue. Following incubation, cells were washed twice with ice cold buffer, solubilized with 0.1 M NaOH (1 ml), and transferred to culture tubes for counting of cell-associated radioactivity. Nonspecific binding was defined as that measured in the presence of 1 μM GIP1-42 or GIP1-30, and specific binding expressed as % of binding in the absence of competitor (% B/Bo).

[2] = target: T1, rat pancreatic islet (wild type) GIP-receptor; assay: cAMP production in CHO-K1 cells expressing the GIP-receptor (wtGIP-R1 cells); type: cell-based; details: basal cyclic AMP = 2.737 ± 0.079 fmol/1000 cells; for cAMP Production (Fold Basal) 10 μM: 10 μM peptide
Protocol: as §1
Cells were extracted with 70% ethanol and cAMP levels measured by radioimmunoassay (Biomedical Technologies, Stoughton, Mass.). Data are expressed as fmol/1000 cells or % maximal GIP1-42-stimulated cAMP production (inhibition experiments).

[3] = target: T2, DPIV (dipeptidyl peptidase IV) (Sus scrofa, UniProt P22411); assay: Determination of DPIV resistance by MALDI-TOF mass spectrometry; type: in vitro ADME; details: purified kidney DPIV, 0.04 M Tris buffer pH 7.6, up to 24 h, MALDI-TOF MS; read-out: half life after incubation with DP IV
T2 construct: The hydrolysis of peptide analogues by purified kidney DPIV was studied as described previously [12]; from tissue; host or cells: kidney
T2 sequence (P22411 whole entry): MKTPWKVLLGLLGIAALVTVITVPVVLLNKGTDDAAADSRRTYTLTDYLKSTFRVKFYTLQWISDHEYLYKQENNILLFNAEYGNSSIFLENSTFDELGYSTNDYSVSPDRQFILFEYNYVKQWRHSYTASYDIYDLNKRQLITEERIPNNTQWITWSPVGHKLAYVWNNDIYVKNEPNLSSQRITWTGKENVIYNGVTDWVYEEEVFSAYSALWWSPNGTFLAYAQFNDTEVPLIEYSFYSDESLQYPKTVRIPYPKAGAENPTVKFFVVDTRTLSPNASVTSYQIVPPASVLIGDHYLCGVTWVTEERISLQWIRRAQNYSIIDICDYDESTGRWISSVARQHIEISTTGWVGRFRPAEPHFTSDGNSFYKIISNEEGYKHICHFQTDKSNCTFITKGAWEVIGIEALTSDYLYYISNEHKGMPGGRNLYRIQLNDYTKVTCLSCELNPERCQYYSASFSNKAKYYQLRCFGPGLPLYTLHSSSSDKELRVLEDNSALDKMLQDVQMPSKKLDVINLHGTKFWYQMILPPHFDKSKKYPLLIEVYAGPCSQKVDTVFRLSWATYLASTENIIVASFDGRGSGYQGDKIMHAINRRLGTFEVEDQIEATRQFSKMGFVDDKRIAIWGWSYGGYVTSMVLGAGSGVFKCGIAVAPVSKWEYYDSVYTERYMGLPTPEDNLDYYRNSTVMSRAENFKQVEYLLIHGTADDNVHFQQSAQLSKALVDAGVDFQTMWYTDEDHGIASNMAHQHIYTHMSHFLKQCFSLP
Protocol: The hydrolysis of peptide analogues by purified kidney DPIV was studied as described previously. […] Samples were removed from the incubation mixture and prepared for MALDI-TOF mass spectrometry, as described in Pauly, […]., Pederson, R. A., and Demuth, H. U.

INS-1 (832/13) cells [4] = assay: Cell survival during glucose deprivation (CYQUANT); type: cell-based; details: inhibitor added 15 min prior to final 24 h culture, 100 nM GIP
Protocol: (§3) Cell passages 45-60 were used.
Cells were seeded into 96-well plates (5×10^4 cells/well) prior to experimentation. […] Cells were quantified using the CYQUANT™ assay system (Molecular Probes, Eugene, Oreg., USA) according to the manufacturers' protocol.
Cell survival was assessed in the presence of prolonged glucose deprivation.

[5] = target: T3, rat pancreatic islet (wild type) GIP-receptor stably expressed on CHO-K1 cells (rat) (UniProt P43219); assay: displacement of 125I-GIP from intact CHO-K1 cells expressing rat GIP receptor, 10 µM peptide
T3 sequence (looked up): T1 sequence (P43219 19-455)

INS-1 (832/13) cells [6] = assay: Glucose dependent β-cell proliferation (CYQUANT cell quantification); type: cell-based
Protocol: as §3
Cells were seeded into 96-well plates (5×10^4 cells/well) prior to experimentation. […] Thereafter, cells were washed with KRBH (115 mM NaCl, 4.7 mM KCl, 1.2 mM KH2PO4, 10 mM NaHCO3, 1.28 mM CaCl2, 1.2 mM MgSO4 containing 10 mM HEPES and 0.1% bovine serum albumin, pH 7.4) and frozen at −70° C. until assayed. Cells were quantified using the CYQUANT™ assay system (Molecular Probes, Eugene, Oreg., USA) according to the manufacturers' protocol. Final cell numbers were always greater than the initial number plated in assessing cellular proliferation.

[7] = target: T4, rat pancreatic islet (wild type) GIP-receptor stably expressed on CHO-K1 cells (rat, UniProt P43219 19-455); assay: displacement of 125I-GIP from intact CHO-K1 cells expressing rat GIP receptor, 10 µM peptide
T4 construct: whole, on cells; also called wtGIPR cells; wtGIP-R1 cells
T4 sequence (looked up): T1 sequence (P43219 19-455)
Protocol: as §1, with “cm²” for “cm^2”
as §2, with “¹²⁵I-labeled spGIP₁₋₄₂,” for “^125I-labeled spGIP1-42,”, “(1-5×10⁵/well)” for “(1-5×10^5/well)”, “¹²⁵I-spGIP” for “^125I-spGIP”, “GIP₁₋₄₂” for “GIP1-42”, “GIP₁₋₃₀,” for “GIP1-30,”

[8] = target: T4, rat pancreatic islet (wild type) …; assay: cell-based or functional assay
[9] = target: T4, rat pancreatic islet (wild type) …; assay: competition with 125I-GIP on intact CHO-K1 cells expressing rat GIP receptor
Protocol: as §1, with “cm²” for “cm^2”
as §2, with “¹²⁵I-labeled spGIP₁₋₄₂,” for “^125I-labeled spGIP1-42,”, “(1-5×10⁵/well)” for “(1-5×10^5/well)”, “¹²⁵I-spGIP” for “^125I-spGIP”, “GIP₁₋₄₂” for “GIP1-42”, “GIP₁₋₃₀,” for “GIP1-30,”

[10] = target: T3, rat pancreatic islet (wild type) GIP-receptor stably expressed on CHO-K1 cells (rat); assay: cell-based or functional assay

YAEGTFISDYSIAMDKIRQQDFVNWLLAQK-NH2 [GIP1-30a, reference compound]
Receptor Binding % Displacement at 10 μM ([1]; 10 μM peptide, 125I-GIP): 99.8 ± 1.2% | cAMP Production (Fold Basal) 10 μM [2]: 108 ± 12 Fold Basal | half-life [3]: < 0.25 h

COc1cccc(-c2cc(=O)c3ccccc3o2)c1N [PD98059]
effect of protein kinase inhibitor on GIP-mediated cell survival (INS-1 (832/13) cells [4]): Neither of the Mek1/2 inhibitors PD98059 (50 and 100 μM) nor U0126 (10 μM) blocked

GIP 1-7NH2 (from UniProt P09681 52-58) (peptide)
% Displacement at 10 µM [5]: -6.1%

N#CC(=C(/N)Sc1ccccc1N)/C(C#N)=C(\N)Sc1ccccc1N [U0126]
effect of protein kinase inhibitor on GIP-mediated cell survival (INS-1 (832/13) cells [4]): Neither of the Mek1/2 inhibitors PD98059 (50 and 100 μM) nor U0126 (10 μM) blocked

Oc1ccc(-c2nc(-c3ccncc3)c(-c3ccc(F)cc3)[nH]2)cc1 [SB202190]
effect of protein kinase inhibitor on GIP-mediated cell survival (INS-1 (832/13) cells [4]): influenced GIP-mediated cell survival

O=S(=O)(NCCNC/C=C/c1ccc(Br)cc1)c1cccc2cnccc12 [H89]
effect of protein kinase inhibitor on GIP-mediated cell survival (INS-1 (832/13) cells [4]): lack of effect; also recorded: unable to reverse

glucagon-like peptide-17-36 [GLP-1]
cell growth, % of that measured in the presence of 5.5 mM glucose (INS-1 (832/13) cells [6]; separate experiment, 100 nM, n=4): 129±4%

ISDYSIAMDKIRQQDFVNWLLAQK-NH2 [GIP7-30a, reference compound]
Receptor Binding % Displacement at 10 μM ([1]; 10 μM peptide, 125I-GIP): 99.3 ± 1.0% | cAMP Production (Fold Basal) 10 μM [2]: 0.89 ± 0.06 Fold Basal | cAMP Production (Fold Basal) 20 μM ([2]; 20 μM peptide): 0.85 ± 0.03 Fold Basal | half-life [3]: 2.17 ± 0.177 h

CC[C@H](C)[C@H](NC(=O)[C@H](CO)NC(=O)[C@H](Cc1ccc(O)cc1)NC(=O)[C@H](CC(=O)O)NC(=O)[C@H](CO)NC(=O)[C@@H](NC(=O)[C@H](Cc1ccccc1)NC(=O)[C@@H](NC(=O)CNC(=O)[C@@H](CCC(=O)O)NC(=O)[C@H](C)NC(=O)[C@@H](N)Cc1ccc(O)cc1)[C@@H](C)O)[C@@H](C)CC)C(=O)N[C@@H](C)C(=O)N[C@@H](CCSC)C(=O)N[C@@H](CC(=O)O)C(=O)N[C@@H](CCCCN)C(=O)N[C@H](C(=O)N[C@@H](CCCNC(=N)N)C(=O)N[C@@H](CCC(N)=O)C(=O)N[C@@H](CCC(N)=O)C(=O)N[C@@H](CC(=O)O)C(=O)N[C@@H](Cc1ccccc1)C(=O)N[C@H](C(=O)N[C@@H](CC(N)=O)C(=O)N[C@@H](Cc1c[nH]c2ccccc12)C(=O)N[C@@H](CC(C)C)C(=O)N[C@@H](CC(C)C)C(=O)N[C@@H](C)C(=O)N[C@@H](CCC(N)=O)C(=O)N[C@@H](CCCCN)C(N)=O)C(C)C)[C@@H](C)CC [D-Glu^3-GIP1-30] (H-YA[dE]GTFISDYSIAMDKIRQQDFVNWLLAQK-NH2; N-terminus and C-terminus assumed)
half-life [3]: 0.672 ± 0.08 h

YAEGTF-NH2 [GIP1-6a]
Receptor Binding % Displacement at 10 μM ([1]; 10000.0): −3.6 ± 7.8% | half-life [3]: > 0.125 h

GH: GH, comparator for cell growth in INS-1 cells
cell proliferation, % of growth in the presence of 5.5 mM glucose (INS-1 (832/13) cells [6]; 11 mM glucose, 10 nM, FIG. 15A): 158±9%

GIP 1-15OH (from UniProt P09681 52-66) (peptide)
% Displacement at 10 µM [5]: -3.1%

YGEGTFISDYSIAMDKIRQQDFVNWLLAQK-NH2 [Gly^2-GIP1-30a]
half-life [3]: 2.51 ± 0.455 h

IRQQDFVNWLLAQK-NH2 (peptide, UniProt P01281 17-30, looked up, range 17-30; also called GIP17-30a) [GIP 17-30NH2]
% Displacement at 10 µM [7]: 81.9% | cAMP Production (Fold Basal) at 10 µM [8]: 1.13 fold basal | cAMP Production (Fold Basal) at 20 µM [8]: 1.12 fold basal | IC50 [9]: 1540 nM

QQDFVNWLLAQK-NH2 (peptide, UniProt P09681 70-81, looked up, range 19-30; also called GIP19-30a) [GIP 19-30NH2]
% Displacement at 10 µM [7]: 52.3% | cAMP Production (Fold Basal) at 10 µM [8]: 20.1 fold basal | cAMP Production (Fold Basal) at 20 µM [8]: 45 fold basal

YAEGTFISDYSIA-OH (peptide, UniProt P09681 52-64, looked up) [GIP 1-13OH]
% Displacement at 10 µM [5]: -0.2% | cAMP Production (Fold Basal) at 10 µM [10]: 1.03 fold basal | cAMP Production (Fold Basal) at 20 µM [10]: 1.15 fold basal

DKIRQQDFVNWLLAQK-NH2 (peptide, UniProt P01281 15-30, looked up, range 15-30; also called GIP15-30a) [GIP 15-30NH2]
% Displacement at 10 µM [7]: 82.7% | cAMP Production (Fold Basal) at 10 µM [8]: 1.24 fold basal | cAMP Production (Fold Basal) at 20 µM [8]: 1.01 fold basal | IC50 [9]: 1400 nM

YAEGTF-NH2 (peptide, UniProt P09681 52-57, looked up) [GIP 1-6NH2]
% Displacement at 10 µM [5]: -3.6% | cAMP Production (Fold Basal) at 10 µM [10]: 1.27 fold basal | cAMP Production (Fold Basal) at 20 µM [10]: 1.08 fold basal

YAEGTFISDYSIA-NH2 (peptide, UniProt P09681 52-64, looked up, range 1-13) [GIP 1-13NH2]
% Displacement at 10 µM [7]: 5% | cAMP Production (Fold Basal) at 10 µM [8]: 6.51 fold basal | cAMP Production (Fold Basal) at 20 µM [8]: 15.7 fold basal

YAEGTFISDYSIAM-NH2 (peptide, UniProt P09681 52-65, looked up, range 1-14) [GIP 1-14NH2]
% Displacement at 10 µM [7]: 27.9% | cAMP Production (Fold Basal) at 10 µM [8]: 75.4 fold basal | cAMP Production (Fold Basal) at 20 µM [8]: 88.3 fold basal

B1: GIP 1-14OH (peptide, UniProt P09681 52-65, looked up)
peptide: YAEGTFISDYSIAM-OH
notes: range 1-14; free acid form; also called native GIP (1-14)
% Displacement at 10 µM [7]: 51.3% | cAMP Production (Fold Basal) at 10 µM [8]: 88.9 fold basal | cAMP Production (Fold Basal) at 20 µM [8]: 85.2 fold basal
